Target: the molecule itself
Test: negative-stain transmission electron microscopy; purified NSF incubated with 1 mM ATP and 2 mM MgCl2, adsorbed to carbon-coated grids, stained with 1 % uranyl acetate

Row | Protein | stoichiometry N
1 | Flag-NSF full-length (human, aa 1-744) (enzyme, UniProt P46459 1-744, looked up, N-ethylmaleimide sensitive fusion protein (NSF), human, full-length, aa 1-744; Cloned into the p3XFLAG-CMV-7.1 vector; also called 3xFlag-NSF wt; NSF wild-type; source: kept on the resin or eluted with 3xFlag peptide; also in HEK293T lysate; not shown: Flag, N-terminal, kept) MAGRSMQAARCPTDELSLTNCAVVNEKDFQSGQHVIVRTSPNHRYTFTLKTHPSVVPGSIAFSLPQRKWAGLSIGQEIEVSLYTFDKAKQCIGTMTIEIDFLQKKSIDSNPYDTDKMAAEFIQQFNNQAFSVGQQLVFSFNEKLFGLLVKDIEAMDPSILKGEPATGKRQKIEVGLVVGNSQVAFEKAENSSLNLIGKAKTKENRQSIINPDWNFEKMGIGGLDKEFSDIFRRAFASRVFPPEIVEQMGCKHVKGILLYGPPGCGKTLLARQIGKMLNAREPKVVNGPEILNKYVGESEANIRKLFADAEEEQRRLGANSGLHIIIFDEIDAICKQRGSMAGSTGVHDTVVNQLLSKIDGVEQLNNILVIGMTNRPDLIDEALLRPGRLEVKMEIGLPDEKGRLQILHIHTARMRGHQLLSADVDIKELAVETKNFSGAELEGLVRAAQSTAMNRHIKASTKVEVDMEKAESLQVTRGDFLASLENDIKPAFGTNQEDYASYIMNGIIKWGDPVTRVLDDGELLVQQTKNSDRTPLVSVLLEGPPHSGKTALAAKIAEESNFPFIKICSPDKMIGFSETAKCQAMKKIFDDAYKSQLSCVVVDDIERLLDYVPIGPRFSNLVLQALLVLLKKAPPQGRKLLIIGTTSRKDVLQEMEMLNAFSTTIHVPNIATGEQLLEALELLGNFKDKERTTIAQQVKGKKVWIGIKKLLMLIEMSLQMDPEYRVRKFLALLREEGASPLDFD | 6
2 | NSF T645A (enzyme, human, UniProt P46459 1-744, looked up, NSF, human, phospho-deficient mutant T645A of the NSF wild-type construct (full-length aa 1-744), made by QuickChange mutagenesis; source: HEK293T, expressed and purified) MAGRSMQAARCPTDELSLTNCAVVNEKDFQSGQHVIVRTSPNHRYTFTLKTHPSVVPGSIAFSLPQRKWAGLSIGQEIEVSLYTFDKAKQCIGTMTIEIDFLQKKSIDSNPYDTDKMAAEFIQQFNNQAFSVGQQLVFSFNEKLFGLLVKDIEAMDPSILKGEPATGKRQKIEVGLVVGNSQVAFEKAENSSLNLIGKAKTKENRQSIINPDWNFEKMGIGGLDKEFSDIFRRAFASRVFPPEIVEQMGCKHVKGILLYGPPGCGKTLLARQIGKMLNAREPKVVNGPEILNKYVGESEANIRKLFADAEEEQRRLGANSGLHIIIFDEIDAICKQRGSMAGSTGVHDTVVNQLLSKIDGVEQLNNILVIGMTNRPDLIDEALLRPGRLEVKMEIGLPDEKGRLQILHIHTARMRGHQLLSADVDIKELAVETKNFSGAELEGLVRAAQSTAMNRHIKASTKVEVDMEKAESLQVTRGDFLASLENDIKPAFGTNQEDYASYIMNGIIKWGDPVTRVLDDGELLVQQTKNSDRTPLVSVLLEGPPHSGKTALAAKIAEESNFPFIKICSPDKMIGFSETAKCQAMKKIFDDAYKSQLSCVVVDDIERLLDYVPIGPRFSNLVLQALLVLLKKAPPQGRKLLIIGATSRKDVLQEMEMLNAFSTTIHVPNIATGEQLLEALELLGNFKDKERTTIAQQVKGKKVWIGIKKLLMLIEMSLQMDPEYRVRKFLALLREEGASPLDFD | 6

Source: PMC4711005, “LRRK2 phosphorylates pre-synaptic N-ethylmaleimide sensitive fusion (NSF) protein enhancing its ATPase activity and SNARE complex disassembling rate” (Molecular Neurodegeneration, 2016)
